Laboratory results taken from patent US20170073386A1 (AstraZeneca / MedImmune, published 2017).

T1: recombinant mouse OX40-Fc (mouse, UniProt P47741 20-211, limits assumed)
T1 construct: Bought reagent; construct not described; not shown: Fc
T1 sequence (looked up): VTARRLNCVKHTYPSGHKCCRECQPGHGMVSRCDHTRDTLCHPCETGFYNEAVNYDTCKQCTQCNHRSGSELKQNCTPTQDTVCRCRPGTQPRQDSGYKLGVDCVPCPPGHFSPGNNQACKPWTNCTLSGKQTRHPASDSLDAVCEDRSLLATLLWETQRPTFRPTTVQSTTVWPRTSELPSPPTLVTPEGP

T2: recombinant mouse GITR-Fc (mouse, UniProt O35714 20-153, limits assumed)
T2 construct: Bought reagent; construct not described; not shown: Fc
T2 sequence (looked up): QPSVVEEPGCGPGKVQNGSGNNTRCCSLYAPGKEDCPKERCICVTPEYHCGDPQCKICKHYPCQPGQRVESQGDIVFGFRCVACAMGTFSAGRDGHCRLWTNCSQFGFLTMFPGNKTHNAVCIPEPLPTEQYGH

T3: human GITR-Fc (human, UniProt Q9Y5U5 26-162, conjugated with europium cryptate in the HTRF assays)
T3 construct: also called hGITR-Fc; hGITRFc; not shown: Fc domain of hIgG1
T3 sequence: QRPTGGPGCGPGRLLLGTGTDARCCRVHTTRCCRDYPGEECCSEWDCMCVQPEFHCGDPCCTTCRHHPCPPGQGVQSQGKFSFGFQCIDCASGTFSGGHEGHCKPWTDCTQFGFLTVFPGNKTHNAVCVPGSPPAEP

T4: human GITR expressed on cells (human, UniProt Q9Y5U5 26-241)
T4 sequence: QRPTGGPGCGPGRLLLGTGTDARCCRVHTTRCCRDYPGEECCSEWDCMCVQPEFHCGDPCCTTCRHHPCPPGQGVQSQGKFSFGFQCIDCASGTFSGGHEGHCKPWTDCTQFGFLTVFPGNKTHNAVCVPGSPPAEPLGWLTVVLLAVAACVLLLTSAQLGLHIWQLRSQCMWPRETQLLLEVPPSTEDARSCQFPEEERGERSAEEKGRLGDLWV

B1: mOX40L-FP mIgG1 (Fc fusion)
chain: VPRDCGCKPCICTVPEVSSVFIFPPKPKDVLTITLTPKVTCVVVDISKDDPEVQFSWFVDDVEVHTAQTQPREEQFNSTFRSVSELPIMHQDWLNGKEFKCRVNSAAFPAPIEKTISKTKGRPKAPQVYTIPPPKEQMAKDKVSLTCMITDFFPEDITVEWQWNGQPAENYKNTQPIMDTDGSYFVYSKLNVQKSNWEAGNTFTCSVLHEGLHNHHTEKSLSHSPGKRLDQDKIEALSNKVQQLERSIGLKDLAMADLEQKVSELEVSTSSPAKDPPIQRLRGAVTRCEDGQLFISSYKNEYQTMEVQNNSVVIKCDGLYIIYLKGSFFQEVKIDLHFREDHNPISIPMLNDGRRIVFTVVASLAFKDKVYLTVNAPDTLCEHLQINDGELIVVQLTPGYCAPEGSYHSTVNQVPL
notes: also called murine OX40L FP mIgG1; Mouse OX40L FP mIgG1
B2: hexameric GITRL FP (GCN4 pII) (Fc fusion, not shown: a dimerising Fc or GST; small tags and cut ends)
chain (part 1 of 2): not shown
chain (part 2 of 2): LQLETAKEPCMAKFGPLPSKWQMASSEPPCVNKVSDWKLEILQNGLYLIYGQVAPNANYNDVAPFEVRLYKNKDMIQTLTNKSKIQNVGGTYELHVGDTIDLIFNSEHQVLKNNTYWGIILLANPQFIS
B3: hexameric GITRL FP (Coronin 1a wt) (Fc fusion, not shown: a dimerising Fc or GST; small tags and cut ends)
chain (part 1 of 2): VSRLEEEMRKLQATVQELQKRLDRLEETVQAK
chain (part 2 of 2): LQLETAKEPCMAKFGPLPSKWQMASSEPPCVNKVSDWKLEILQNGLYLIYGQVAPNANYNDVAPFEVRLYKNKDMIQTLTNKSKIQNVGGTYELHVGDTIDLIFNSEHQVLKNNTYWGIILLANPQFIS
B4: hexameric GITRL FP (Matrilin 1 wt) (Fc fusion, not shown: a dimerising Fc or GST; small tags and cut ends)
chain (part 1 of 2): CACESLVKFQAKVEGLLQALTRKLEAVSKRLAILENTVV
chain (part 2 of 2): LQLETAKEPCMAKFGPLPSKWQMASSEPPCVNKVSDWKLEILQNGLYLIYGQVAPNANYNDVAPFEVRLYKNKDMIQTLTNKSKIQNVGGTYELHVGDTIDLIFNSEHQVLKNNTYWGIILLANPQFIS
B5: hexameric GITRL FP (DMPK wt) (Fc fusion, not shown: a dimerising Fc or GST; small tags and cut ends)
chain (part 1 of 2): EAEAEVTLRELQEALEEEVLTRQSLSREMEAIRTDNQNFASQLREAEARNRDLEAHVRQLQERMELLQAE
chain (part 2 of 2): LQLETAKEPCMAKFGPLPSKWQMASSEPPCVNKVSDWKLEILQNGLYLIYGQVAPNANYNDVAPFEVRLYKNKDMIQTLTNKSKIQNVGGTYELHVGDTIDLIFNSEHQVLKNNTYWGIILLANPQFIS
B6: hGITRL FP N129A (Fc fusion)
chain: LQLETAKEPCMAKFGPLPSKWQMASSEPPCVNKVSDWKLEILQNGLYLIYGQVAPNANYNDVAPFEVRLYKNKDMIQTLTAKSKIQNVGGTYELHVGDTIDLIFNSEHQVLKNNTYWGIILLANPQFIS
notes: also called N129A mutated hGITRL FP; not shown: detection with anti-FLAG antibody implies a FLAG e
B7: hGITRL FP N104D (Fc fusion, not shown: a dimerising Fc or GST)
chain: LQLETAKEPCMAKFGPLPSKWQMASSEPPCVNKVSDWKLEILQNGLYLIYGQVAPDANYNDVAPFEVRLYKNKDMIQTLTNKSKIQNVGGTYELHVGDTIDLIFNSEHQVLKNNTYWGIILLANPQFIS
notes: also called N104D GITRL FP
B8: hexameric GITRL FP (Coronin 1a variant) (Fc fusion, not shown: a dimerising Fc or GST; small tags and cut ends)
chain (part 1 of 2): ISRIEEEIRKINATVQELQKRIDRLEETVQAK
chain (part 2 of 2): LQLETAKEPCMAKFGPLPSKWQMASSEPPCVNKVSDWKLEILQNGLYLIYGQVAPNANYNDVAPFEVRLYKNKDMIQTLTNKSKIQNVGGTYELHVGDTIDLIFNSEHQVLKNNTYWGIILLANPQFIS
B9: hexameric GITRL FP (Langerin variant) (Fc fusion, not shown: a dimerising Fc or GST; small tags and cut ends)
chain (part 1 of 2): ISALNTKIRAIQGSIENMSKLIKRQNDIIQVVS
chain (part 2 of 2): LQLETAKEPCMAKFGPLPSKWQMASSEPPCVNKVSDWKLEILQNGLYLIYGQVAPNANYNDVAPFEVRLYKNKDMIQTLTNKSKIQNVGGTYELHVGDTIDLIFNSEHQVLKNNTYWGIILLANPQFIS
B10: hexameric GITRL FP (DMPK variant) (Fc fusion, not shown: a dimerising Fc or GST; small tags and cut ends)
chain (part 1 of 2): IAEIEVTIRELQEAIEEEVLTRQSLSREIEAIRTDIQNIASQLREIEARIRDLEAHVRQLQERMELLQAE
chain (part 2 of 2): LQLETAKEPCMAKFGPLPSKWQMASSEPPCVNKVSDWKLEILQNGLYLIYGQVAPNANYNDVAPFEVRLYKNKDMIQTLTNKSKIQNVGGTYELHVGDTIDLIFNSEHQVLKNNTYWGIILLANPQFIS
B11: hexameric GITRL FP (Matrilin 1 variant) (Fc fusion, not shown: a dimerising Fc or GST; small tags and cut ends)
chain (part 1 of 2): CACESLVKFQAKVEGLIQALTRKLEAVSKRIAILENTVV
chain (part 2 of 2): LQLETAKEPCMAKFGPLPSKWQMASSEPPCVNKVSDWKLEILQNGLYLIYGQVAPNANYNDVAPFEVRLYKNKDMIQTLTNKSKIQNVGGTYELHVGDTIDLIFNSEHQVLKNNTYWGIILLANPQFIS
B12: hGITRL FP N129A/N161D (Fc fusion)
chain: LQLETAKEPCMAKFGPLPSKWQMASSEPPCVNKVSDWKLEILQNGLYLIYGQVAPNANYNDVAPFEVRLYKNKDMIQTLTAKSKIQNVGGTYELHVGDTIDLIFNSEHQVLKDNTYWGIILLANPQFIS
notes: not shown: detection with anti-FLAG antibody implies a FLAG e
B13: hGITRL FP N92D (Fc fusion, not shown: a dimerising Fc or GST)
chain: LQLETAKEPCMAKFGPLPSKWQMASSEPPCVNKVSDWKLEILQDGLYLIYGQVAPNANYNDVAPFEVRLYKNKDMIQTLTNKSKIQNVGGTYELHVGDTIDLIFNSEHQVLKNNTYWGIILLANPQFIS
B14: hGITRL FP wt (Fc fusion)
chain: QLETAKEPCMAKFGPLPSKWQMASSEPPCVNKVSDWKLEILQNGLYLIYGQVAPNANYNDVAPFEVRLYKNKDMIQTLTNKSKIQNVGGTYELHVGDTIDLIFNSEHQVLKNNTYWGIILLANPQFIS
notes: as for B12
B15: hGITRL FP N161D (Fc fusion)
chain: QLETAKEPCMAKFGPLPSKWQMASSEPPCVNKVSDWKLEILQNGLYLIYGQVAPNANYNDVAPFEVRLYKNKDMIQTLTNKSKIQNVGGTYELHVGDTIDLIFNSEHQVLKDNTYWGIILLANPQFIS
notes: as for B12

Tests used:
[1] = biological target: T1, recombinant mouse OX40-Fc; test: ELISA, coated mouse OX40-Fc, FP at 1 ug/mL, HRP anti-mouse Fc
Experimental: (§1) Recombinant mouse GITR-Fc and OX40-Fc (R&D Systems) glycoproteins were coated overnight at 1 μg/mL in PBS onto 96-well plates (Greiner). Plates were washed with PBST (PBS+0.01% Tween-20), blocked for 1 hour at room temperature with PBS containing 1% (w/v) BSA, and washed in PBST again. Twenty-five microlitres of 1 μg/mL mouse GITRL or OX40L FPs diluted in assay buffer [PBS+1% bovine serum albumin (BSA)] was added to wells, and plates were incubated for 2 hours at room temperature. After 3 washes, 25 μL of 1 μg/mL horseradish peroxidase-conjugated anti-mouse Fc antibody (Sigma) diluted in assay buffer was added to each well, and plates were incubated for 1 hour. After incubation, plates were washed 3 times in PBST, 25 μL of tetramethylbenzidine substrate solution (KPL) was added to each well, and plates incubated for 5 minutes. After incubation 15 μL of 0.5 M sulphuric acid stop solution was added to all wells. The optical density at 450 nm was measured using an EnVision plate reader (PerkinElmer).

[2] = biological target: T2, recombinant mouse GITR-Fc; test: ELISA, coated mouse GITR-Fc, HRP anti-mouse Fc
Experimental: as §1

human GITR-Fc [3] = biological target: T3, human GITR-Fc; test: HTRF competition; competitor GITRL-HA on GITR-Fc
Experimental: The effect of the hexameric GITRL FP molecules on human GITRL binding to human GITR was determined using a Homogeneous Time Resolved Fluorescence (HTRF) assay.
(§2) The hexameric GITRL FP molecules were titrated into an HTRF assay in which binding of GITRL-HA (hemagglutinin tag) to GITR-Fc was measured. The human GITR Fc was conjugated with europium cryptate and an anti-HA antibody conjugated with XL665 was used to detect the GITRL-HA protein. IC₅₀ values were determined by curve fitting the analyzed data to a four parameter logistic equation with Prism 5.01 software (GraphPad).

[4] = biological target: T4, human GITR expressed on cells; test: cell-based or functional assay
human GITR-Fc [5] = biological target: T3, human GITR-Fc; test: HTRF direct binding, Eu cryptate hGITR-Fc and anti-FLAG XL665, one site saturation fit
Experimental: The hGITRL FP molecules were titrated into an HTRF assay in which binding of the hGITRL FP to hGITR-Fc was measured. The human hGITR Fc was conjugated with europium cryptate and an anti-FLAG antibody conjugated with XL665 was used to detect the hGITRL FP protein. KD values were determined by curve fitting the analyzed data to a one site saturation binding equation with Prism 5.01 software (GraphPad).

human GITR-Fc [6] = biological target: T3, human GITR-Fc; test: HTRF competition: titrated FP against binding of GITRL-HA (anti-HA XL665) to europium cryptate hGITR-Fc
Experimental: (§3) The effect of the GITRL FP molecules on human GITRL binding to human GITR was determined using a Homogeneous Time Resolved Fluorescence (HTRF) assay.
as §2, with “The” for “The hexameric”

human GITR-Fc [7] = biological target: T3, human GITR-Fc; test: as above; remark: listed apart in the source
Experimental: as §3
as §2, with “The” for “The hexameric”

Binder | IC50 (human GITR-Fc [3]) [nM] | EC50 (nM), human GITR transfected NF-κB luciferase gene reporter cell line [4] [nM] | also measured
B1 |  |  | binding result [1]: binds; binding result [2]: no binding
B2 | 1.06 | 1.02 | 
B3 | 0.61 | 0.95 | 
B4 | 1.36 | 1.12 | 
B5 | 2.73 | 1.37 | 
B6 |  |  | Kd (human GITR-Fc [5]): 3.77 nM
B7 |  |  | IC50 (human GITR-Fc [6]): 0.529 nM
B8 | 1.44 | 0.74 | 
B9 | 2 | 0.75 | 
B10 | 2.43 | 1.39 | 
B11 | 0.83 | 0.9 | 
B12 |  |  | Kd (human GITR-Fc [5]): 11.8 nM
B13 |  |  | IC50 (human GITR-Fc [6]): 0.587 nM
B14 |  |  | Kd (human GITR-Fc [5]): 1.23 nM; IC50 (human GITR-Fc [7]): 0.696 nM; IC50 (human GITR-Fc [6]): 0.631 nM
B15 |  |  | Kd (human GITR-Fc [5]): 1.08 nM; IC50 (human GITR-Fc [7]): 0.63 nM
